Data: PMC11793764, “A universal method for the purification of C2H2 zinc finger arrays”

Molecular target: CCR5L (designed (synthetic))
Assay: MST; 100 uM ZnCl2; MST: 20 mM Tris-HCl pH 7.5, 200 mM NaCl, 0.01% Tween-20, 100 uM ZnCl2, 0.1 mM TCEP; TZAP arrays: 20 mM Tris-HCl pH 7.0, 50 mM NaCl, 0.1% Tween-20, 100 uM ZnCl2, 0.1 mM TCEP; temperature not stated
Settings: protein: recombinant; tags: His-SUMO cleaved by Ulp1; Cy5-maleimide on terminal Cys; hairpin

Sequence of CCR5L (designed (synthetic)) (chain, as listed by the source): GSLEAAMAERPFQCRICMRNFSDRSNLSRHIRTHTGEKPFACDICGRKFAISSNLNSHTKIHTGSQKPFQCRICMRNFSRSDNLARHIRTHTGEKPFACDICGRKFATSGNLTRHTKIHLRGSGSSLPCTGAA

B1: ccr5l-wt (structured_DNA)
DNA: GGCTTCCGCTGTCATCCTCATCAGGTTTTCCTGATGAGGATGACAGCGGAAGCC
Kd: 5.7 nM
